According to publication PMC6937582, “Human leukocyte antigen (HLA) class II peptide flanking residues tune the immunogenicity of a human tumor-derived epitope” (The Journal of Biological Chemistry, 2019):
One block for each binder: values may come before it.

Assays:
[1] = target: HLA-DR1 (HLA-DRα*0101 and HLA-DRβ1*0101) (human); test: ELISA; competitive peptide-binding assay: test peptide 10^-4-10^-10 M against 4.5 nM biotinylated CLIP 99-117 marker peptide for 0.1 μg refolded HLA-DR1-CLIP 105-117; 20 mM MES, 140 mM NaCl, 0.02% NaN3, pH 5, overnight at 37 °C; HLA-DR1 captured on anti-DR L243, bound marker detected with streptavidin-HRP; % competitive inhibition, four-parameter fit
[2] = target: HLA-DR1 (HLA-DRα*0101 and HLA-DRβ1*0101); test: in vitro competition assay (HLA-DR1 peptide binding); conditions: chain shown with the change

IC50 [2]: 144 nM
B2: 5T4_(111–130) 20-mer peptide N8A (peptide)
chain: FARRPPLAELAALALSGSRL

IC50 [2]: 725 nM
B3: 5T4_(111–130) 20-mer peptide L7A (peptide)
chain: FARRPPLAELAAANLSGSRL

More lines, now with the values behind:

B1: 5T4_(111–130) 20-mer peptide (peptide)
peptide: FARRPPLAELAALNLSGSRL
IC50 [1]: 176 nM

B4: 5T4_(111–130) 20-mer peptide G11R (peptide)
chain: FARRPPLAELAALNLSRSRL
IC50 [2]: 255 nM
